Measurements as given in paper PMC5527020.

Key:
[1] = tested on: HCV NS3; test: magnetic-bead pull-down with q-PCR; conditions: BD buffer: 50 mM NaH2PO4 pH 8.0, 150 mM NaCl, 5 mM KCl, 2 mM MgCl2, 0.05% Tween-20; room temperature, 30 min; aptamer heated to 95 C and cooled at 4 C
[2] = tested on: Hepatitis B surface antigen (HBs Ag); test: magnetic-bead pull-down with q-PCR; conditions: BD buffer: 50 mM NaH2PO4 pH 8.0, 150 mM NaCl, 5 mM KCl, 2 mM MgCl2, 0.05% Tween-20; room temperature, 30 min; aptamer heated to 95 C and cooled at 4 C

Sequence: AGCAGCACAGAGGTCCTGCATCACGAAGCCTGGCAGCGTGCTACCGTGAA [MP-1]
- Kd [1]: 0.0233 µM
- Kd [2]: 0.0283 µM
